# Source: IntAct's records for PubMed 31515488
# B1: Filamin-binding LIM protein 1 (Homo sapiens), Q8WUP2 (parent)
# chain: MASKPEKRVASSVFITLAPPRRDVAVAEEVRQAVCEARRGRPWEAPAPMKTPEAGLAGRPSPWTTPGRAAATVPAAPMQLFNGGCPPPPPVLDGEDVLPDLDLLPPPPPPPPVLLPSEEEAPAPMGASLIADLEQLHLSPPPPPPQAPAEGPSVQPGPLRPMEEELPPPPAEPVEKGASTDICAFCHKTVSPRELAVEAMKRQYHAQCFTCRTCRRQLAGQSFYQKDGRPLCEPCYQDTLERCGKCGEVVRDHIIRALGQAFHPSCFTCVTCARCIGDESFALGSQNEVYCLDDFYRKFAPVCSICENPIIPRDGKDAFKIECMGRNFHENCYRCEDCRILLSVEPTDQGCYPLNNHLFCKPCHVKRSAAGCC
# partner: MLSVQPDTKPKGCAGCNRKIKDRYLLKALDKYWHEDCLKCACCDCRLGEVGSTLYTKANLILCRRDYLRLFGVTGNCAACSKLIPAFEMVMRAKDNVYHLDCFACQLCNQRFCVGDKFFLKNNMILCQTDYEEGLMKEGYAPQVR
# B2: Notch homolog 2 N-terminal-like protein A (Homo sapiens), Q7Z3S9 (parent)
# chain: MCVTYHNGTGYCKCPEGFLGEYCQHRDPCEKNRCQNGGTCVAQAMLGKATCRCASGFTGEDCQYSTSHPCFVSRPCLNGGTCHMLSRDTYECTCQVGFTGKECQWTDACLSHPCANGSTCTTVANQFSCKCLTGFTGQKCETDVNECDIPGHCQHGGTCLNLPGSYQCQCLQGFTGQYCDSLYVPCAPSPCVNGGTCRQTGDFTFECNCLPETVRRGTELWERDREVWNGKEHDEN
# partner: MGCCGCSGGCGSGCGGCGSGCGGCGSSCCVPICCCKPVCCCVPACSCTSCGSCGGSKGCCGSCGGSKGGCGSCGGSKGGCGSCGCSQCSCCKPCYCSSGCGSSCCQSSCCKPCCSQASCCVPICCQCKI
# B3: IQ motif and ubiquitin-like domain-containing protein (Homo sapiens), Q8NA54 (parent)
# chain: MSNQQEKYEAQNIVNSTEESDDAFDTVTIPVPSEEPQESDQTEEHESGIEQFSESHAIHVEEQSDQSFSSLEPDNEQLMEEVISPRQVSYTPQHHEKQYAMQRPNDDSLAFLDKIKSVKESLQESVEDSLATVKVVLIPVGQEIVIPFKVDTILKYLKDHFSHLLGIPHSVLQIRYSGKILKNNETLVQHGVKPQEIVQVEIFSTNPDLYPVRRIDGLTDVSQIITVTVQTGLDQYQQVPVEIVKSDFHKPFLGGFRHKVTGVEYHNAGTQTVPKRIPERLSIFCRDTQTVFQKKNLQQTTNTTSTQMTNIGVYVSNMTDKLVTPGKYFSAAEYHAQRLKAVIVIQTYYRQWHAKIFVENLRRQKSLRLEWETQQELRKIREKEEWIKLDYHRRHNPKTNEDFEFLYNALEFWRQEELTRINQSFTGAERKAALCELLEKETQIIASIGRHRYIAYMANQEAAIQAFLDKCSAPKIWRTPNGKTIEMDTQFTIRARELQNIYKCIMLKNISQDERLDVLLTLKHTVKEHECKLTQEILELIDREVDLMMRGVKHHNLEGLRKRIATLFFHYIKTPLFNPEVAKYLKVPQDPLKFYKKIYFCHSCQLYLPSTEFSVSSTSRRIYRCRNCINLQNEAQKRESFLKYKCLLQQLYYTEADYEDDSKIAFLMQLQDIQYLTENIWASQSVLSACDNLSDLVMVRWNKSLEWSPWNCILLTKDEAAAHLKLTSIEEGYERSFIHKIKHKHILAKNYFSQVPVLASFILDDGEIDEIRWKYHSDTTPKIIESQRPPH
# partner: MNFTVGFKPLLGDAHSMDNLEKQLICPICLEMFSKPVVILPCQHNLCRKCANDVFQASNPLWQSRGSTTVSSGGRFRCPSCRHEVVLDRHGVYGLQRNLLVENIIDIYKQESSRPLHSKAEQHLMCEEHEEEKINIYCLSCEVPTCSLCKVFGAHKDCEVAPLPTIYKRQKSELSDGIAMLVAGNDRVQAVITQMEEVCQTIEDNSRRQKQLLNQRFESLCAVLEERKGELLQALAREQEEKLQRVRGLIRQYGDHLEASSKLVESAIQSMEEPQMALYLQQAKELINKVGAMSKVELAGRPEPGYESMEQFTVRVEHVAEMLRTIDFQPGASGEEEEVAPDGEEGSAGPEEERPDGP
# B4: Protein FAM9B (Homo sapiens), Q8IZU0 (parent)
# chain: MAAWGKKHAGKDPVRDECEERNRFTETREEDVTDEHGEREPFAETDEHTGANTKKPEDTAEDLTAKRKRMKMDKTCSKTKNKSKHALRKKQLKRQKRDYIHSLKLLNVLEEYITDEQKEEEEEEGEEEELIRIFQEQQKKWQQYRSVRRERLKEMKLLRDQFVKALEDFEDLCDRVFSDEDSELDN
# partner: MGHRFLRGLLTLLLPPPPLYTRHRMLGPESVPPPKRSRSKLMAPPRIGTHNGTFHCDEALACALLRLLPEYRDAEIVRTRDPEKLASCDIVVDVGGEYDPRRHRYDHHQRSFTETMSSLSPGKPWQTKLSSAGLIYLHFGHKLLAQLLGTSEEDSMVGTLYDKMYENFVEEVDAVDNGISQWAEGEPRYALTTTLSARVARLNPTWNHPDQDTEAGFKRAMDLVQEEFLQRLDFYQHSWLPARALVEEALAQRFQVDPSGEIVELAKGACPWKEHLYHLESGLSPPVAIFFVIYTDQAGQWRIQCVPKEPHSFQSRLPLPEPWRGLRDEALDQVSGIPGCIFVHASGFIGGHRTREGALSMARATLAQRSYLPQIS
# B5: Progranulin (Homo sapiens), P28799 (parent)
# chain: MWTLVSWVALTAGLVAGTRCPDGQFCPVACCLDPGGASYSCCRPLLDKWPTTLSRHLGGPCQVDAHCSAGHSCIFTVSGTSSCCPFPEAVACGDGHHCCPRGFHCSADGRSCFQRSGNNSVGAIQCPDSQFECPDFSTCCVMVDGSWGCCPMPQASCCEDRVHCCPHGAFCDLVHTRCITPTGTHPLAKKLPAQRTNRAVALSSSVMCPDARSRCPDGSTCCELPSGKYGCCPMPNATCCSDHLHCCPQDTVCDLIQSKCLSKENATTDLLTKLPAHTVGDVKCDMEVSCPDGYTCCRLQSGAWGCCPFTQAVCCEDHIHCCPAGFTCDTQKGTCEQGPHQVPWMEKAPAHLSLPDPQALKRDVPCDNVSSCPSSDTCCQLTSGEWGCCPIPEAVCCSDHQHCCPQGYTCVAEGQCQRGSEIVAGLEKMPARRASLSHPRDIGCDQHTSCPVGQTCCPSLGGSWACCQLPHAVCCEDRQHCCPAGYTCNVKARSCEKEVVSAQPATFLARSPHVGVKDVECGEGHFCHDNQTCCRDNRQGWACCPYRQGVCCADRRHCCPAGFRCAARGTKCLRREAPRWDAPLRDPALRQLL
# partner: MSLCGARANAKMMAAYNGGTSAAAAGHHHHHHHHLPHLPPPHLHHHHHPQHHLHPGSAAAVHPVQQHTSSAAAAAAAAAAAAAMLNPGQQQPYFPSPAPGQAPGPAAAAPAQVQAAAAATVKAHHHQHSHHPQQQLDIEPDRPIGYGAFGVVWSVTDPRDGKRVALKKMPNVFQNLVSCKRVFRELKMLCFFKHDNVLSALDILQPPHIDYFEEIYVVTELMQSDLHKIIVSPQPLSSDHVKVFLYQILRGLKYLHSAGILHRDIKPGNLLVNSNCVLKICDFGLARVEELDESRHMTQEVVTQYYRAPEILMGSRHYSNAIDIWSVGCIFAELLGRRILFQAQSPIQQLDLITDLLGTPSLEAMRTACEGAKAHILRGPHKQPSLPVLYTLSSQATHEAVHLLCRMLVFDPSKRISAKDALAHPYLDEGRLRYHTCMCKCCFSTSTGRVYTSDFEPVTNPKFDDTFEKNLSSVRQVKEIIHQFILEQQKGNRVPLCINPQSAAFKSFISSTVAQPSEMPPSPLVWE
# B6: Ornithine decarboxylase antizyme 3 (Homo sapiens), Q9UMX2 (parent)
# chain: MPCKRCRPSVYSLSYIKRGKTRNYLYPIWSPYAYYLYCYKYRITLREKMLPRCYKSITYKEEEDLTLQPRSCLQCSESLVGLQEGKSTEQGNHDQLKELYSAGNLTVLATDPLLHQDPVQLDFHFRLTSQTSAHWHGLLCDRRLFLDIPYQALDQGNRESLTATLEYVEEKTNVDSVFVNFQNDRNDRGALLRAFSYMGFEVVRPDHPALPPLDNVIFMVYPLERDVGHLPSEPP
# partner: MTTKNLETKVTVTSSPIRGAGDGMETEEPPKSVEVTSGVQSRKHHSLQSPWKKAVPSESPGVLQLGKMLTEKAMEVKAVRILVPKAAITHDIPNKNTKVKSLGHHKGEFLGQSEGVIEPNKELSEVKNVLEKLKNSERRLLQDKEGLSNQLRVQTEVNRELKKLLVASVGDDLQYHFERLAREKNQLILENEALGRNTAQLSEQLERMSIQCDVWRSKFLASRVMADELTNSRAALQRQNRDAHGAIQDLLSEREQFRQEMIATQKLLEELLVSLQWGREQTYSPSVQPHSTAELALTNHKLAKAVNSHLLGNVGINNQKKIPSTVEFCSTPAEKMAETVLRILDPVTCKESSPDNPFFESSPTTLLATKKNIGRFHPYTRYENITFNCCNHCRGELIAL
# B7: Centrosomal protein of 55 kDa (Homo sapiens), Q53EZ4 (parent)
# chain: MSSRSTKDLIKSKWGSKPSNSKSETTLEKLKGEIAHLKTSVDEITSGKGKLTDKERHRLLEKIRVLEAEKEKNAYQLTEKDKEIQRLRDQLKARYSTTTLLEQLEETTREGERREQVLKALSEEKDVLKQQLSAATSRIAELESKTNTLRLSQTVAPNCFNSSINNIHEMEIQLKDALEKNQQWLVYDQQREVYVKGLLAKIFELEKKTETAAHSLPQQTKKPESEGYLQEEKQKCYNDLLASAKKDLEVERQTITQLSFELSEFRRKYEETQKEVHNLNQLLYSQRRADVQHLEDDRHKTEKIQKLREENDIARGKLEEEKKRSEELLSQVQFLYTSLLKQQEEQTRVALLEQQMQACTLDFENEKLDRQHVQHQLHVILKELRKARNQITQLESLKQLHEFAITEPLVTFQGETENREKVAASPKSPTAALNESLVECPKCNIQYPATEHRDLLVHVEYCSK
# partner: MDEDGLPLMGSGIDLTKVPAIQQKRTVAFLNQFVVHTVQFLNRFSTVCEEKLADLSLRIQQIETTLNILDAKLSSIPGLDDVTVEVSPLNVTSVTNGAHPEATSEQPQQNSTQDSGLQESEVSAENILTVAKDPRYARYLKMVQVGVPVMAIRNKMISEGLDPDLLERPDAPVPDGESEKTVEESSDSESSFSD
# Variants of: B1
# Settings: with lmo3_human LMO3, Q8TAP4
row,effect of a mutation on the interaction,Variant
1,with no effect,E233K
2,with no effect,V174I

# Variants of: B1
# Settings: with lmo3_human LMO3, Q8TAP4
# Remark: another data set of the same source
row,effect of a mutation on the interaction,Variant
1,disrupting interaction strength,Y204C

# Variants of: B2
# Settings: with kra56_human KRTAP5-6, Q6L8G9
row,effect of a mutation on the interaction,Variant
1,with no effect,A115T
2,with no effect,R74Q

# Variants of: B3
# Settings: with tri54_human TRIM54, Q9BYV2
row,effect of a mutation on the interaction,Variant
1,with no effect,V126M
2,disrupting interaction strength,I501F

# Variants of: B4
# Settings: with myg1_human MYG1, Q9HB07
row,effect of a mutation on the interaction,Variant
1,with no effect,R23H

# Variants of: B5
# Settings: with nlk_human NLK
row,effect of a mutation on the interaction,Variant
1,with no effect,R19W

# Variants of: B6
# Settings: with go45_human BLZF1, Q9H2G9
row,effect of a mutation on the interaction,Variant
1,disrupting interaction strength,V174A
2,with no effect,R193Q

# Variants of: B7
# Settings: with wasc3_human WASHC3, Q9Y3C0
row,effect of a mutation on the interaction,Variant
1,with no effect,L59F
